Results as given in patent publication US20150359847A1, “METHOD AND COMPOSITION FOR CONFERRING NEUROPROTECTION” (BLOOD SYSTEMS RESEARCH INSTITUTE, priority 2014, published 2015).

Assays:
[1] = tested on: S6 Ribosomal Protein (S235/236) in primary hippocampal neurons; test: S6 Ribosomal Protein (S235/236) phosphorylation in primary hippocampal neurons; format: cell-based, mouse; conditions: 1 μg/ml TIMP3, 15 mins
Protocol: SH-SY5Y cells were obtained from ATCC (Cat# CRL-2266, Manassas, Va.) and were cultured in DMEM and 10% FBS up to passage 10. For differentiation of SH-SY5Y cells into a neuronal phenotype, cells were first plated in DMEEM+10% FBS for 24 hrs before exchanging media in DMEM+1% FBS 10 μM retinoic acid. Differentiation was performed for 3 days before experimentation. Hippocampal neurons were prepared according to the protocol by Beaudoin et al. (Nature Protocols 2012; 7(9):1741-1754) with minor modifications. In brief, after trypsin digestion of hippocampi isolated from P1 mouse pups single cell suspensions was created by trituration and plated onto Biocoat™ poly-D-lysine coated 12-well plates (Cat#354470, BD Biosciences, San Jose, Calif.). […]
Pathscan Antibody™ array kits were purchased from Cell Signaling Technologies (Danvers, Mass.). PathScan® RTK signaling antibody array kit (Fluorescent Readout, Cat#7949) and PathScan™ Akt signaling antibody array kit (Fluorescent Readout, Cat#9700) were performed as per manufacturer's instructions. Imaging was performed on a LI-COR Odyssey™ infrared scanner and pixel densities measured by in house LI-COR Image™ suite software. […]
Lysates was analyzed in conjuncture with the LI-COR Odyssey™ infra-red imaging system. […] After further wash steps images were obtained using a LI-COR™ Odyssey scanner and quantified using LI-COR™ Image Studio software. […]

[2] = tested on: phospho-Akt (Ser473) in hippocampal homogenates; test: Hippocampal phospho-Akt western blot 3 days post-TBI; format: in vivo, mouse
From the text: The mouse controlled cortical impact (CCI) injury model was used as previously described. In brief, mice were anesthetized with 5% isoflurane and 1:1 O2:N2 mixture. Animals were mounted on a stereotaxic frame and were secured by ear bars and an incisor bar. Anesthesia was maintained with 2.0% isoflurane and 1:1 O2:N2 mixture. A 5-mm-diameter craniotomy was made midway between bregma and lambda on the right side, with the medial edge of the craniotomy 1 mm lateral to midline. Injury was produced using a magnetic impactor mounted at an angle of 110° from the vertical plane. A single impact at a velocity of 4+/−0.2 m/s was used inflict a moderate to severe injury (1.2-1.3 mm impact depth). After injury, the incision was closed. […] Core body temperature was monitored using a rectal thermometer and maintained at 36.8° C.-37.2° C. with a heating pad throughout the procedure. […]
Cell lysates for western blotting were prepared with RIPA buffer (Cat#89900. Thermofisher Scientific, Rockford, Ill.) supplemented with phosphatase inhibitor cocktail 2 (Cat# P5726. Sigma, St Louis, Mo.), phosphatase inhibitor cocktail 3 (Cat# P0044. Sigma, St Louis, Mo.) and complete protease inhibitor (Cat#1862209. Thermofisher Scientific, Rockford, Ill.). […] Protein content was quantified with a Pierce BCA protein assay kit per manufacturer's instructions (Cat#23225. Thermofisher Scientific, Rockford, Ill.). […]

[3] = tested on: NeuN+ve hilar neurons of the dentate gyrus; test: NeuN staining of hilar neurons of the dentate gyrus 7 days post-TBI; format: in vivo, mouse
From the text: (§1) The mouse controlled cortical impact (CCI) injury model was used as previously described. In brief, mice were anesthetized with 5% isoflurane and 1:1 O2:N2 mixture. Animals were mounted on a stereotaxic frame and were secured by ear bars and an incisor bar. Anesthesia was maintained with 2.0% isoflurane and 1:1 O2:N2 mixture. A 5-mm-diameter craniotomy was made midway between bregma and lambda on the right side, with the medial edge of the craniotomy 1 mm lateral to midline. Injury was produced using a magnetic impactor mounted at an angle of 110° from the vertical plane. A single impact at a velocity of 4+/−0.2 m/s was used inflict a moderate to severe injury (1.2-1.3 mm impact depth). After injury, the incision was closed. Sham animals underwent identical surgeries except for impact injury. Core body temperature was monitored using a rectal thermometer and maintained at 36.8° C.-37.2° C. with a heating pad throughout the procedure. For treatments, TIMP3 (60.0 μg/kg) or vehicle control (PBS) administration was performed at 2, 24, and 48 hrs after injury via tail vein injections in a total volume of 125 μl. Animal research was performed with approval of the Institutional Animal Care and Use Committee at ISIS Services LLC (San Carlos, Calif., USA). […]

[4] = tested on: mouse model of controlled cortical impact (CCI); test: Context-dependent fear discrimination in CCI TBI mice (Example 1); format: in vivo; conditions: TIMP3 60 μg/kg IV x3; task day 2 (day 16)
From the text: as §1, with “μl.” for “μl. Animal research was performed with approval of the Institutional Animal Care and Use Committee at ISIS Services LLC (San Carlos, Calif., USA).”
Contextual discrimination was assessed in a manner similar to prior studies conducted by the inventors and others. […] Comparing the time spent freezing in each chamber during training assessed discrimination of the two contexts.

B1: TIMP3: Recombinant tissue inhibitor of matrix metalloproteinase-3, a soluble protein released by MSCs, obtained from Amgen Inc. (protein)
chain: CTCSPSHPQDAFCNSDIVIRAKVVGKKLVKEGPFGTLVYTIKQMKMYRGFTKMPHVQYIHTEASESLCGLKLEVNKYQYLLTGRVYDGKMYTGLCNFVERWDQLTLSQRKGLNYRYHLGCNCKIKSCYYLPCFVTSKNECLWTDMLSNFGYPGYQSKHYACIRQKGGYCSWYRGWAPPDKSIINATDP
- S6 Ribosomal Protein (S235/236) activation, western blot [1]: activates S6 Ribosomal Protein (S^235/236)
- S6 Ribosomal Protein (S235/236) phosphorylation, antibody array [1]: phosphorylates mTORC1 pathway target S6 Ribosomal Protein (S^235/236)
- phospho-Akt (Ser473) in ipsilateral hippocampal homogenates ([2]; TIMP3 60 μg/kg IV x3, day 3, 1 hr after last injection, vs TBI alone): significantly elevates
- Phospho-Akt (Ser473) in contralateral hippocampal homogenates ([2]; day 3): No differences were observed
- NeuN staining, contralateral side [3]: no significant differences on the contralateral side
- NeuN+ve neurons in the hilus, ipsilateral ([3]; IV TIMP3 vs TBI): significantly attenuated the loss of NeuN+ve cells
- discrimination between shock and safe contexts [4]: discriminated between the environments following training
